PMC5612097, “Discovery of a microbial transglutaminase enabling highly site-specific labeling of proteins” (The Journal of Biological Chemistry, 2017)
Where no end group is shown, it is not given here. The star is where a group is joined. Cbz = O=C(OCc1ccccc1)*

How the values were obtained:
KalbTG = molecular target: T1, KalbTG (Kutzneria viridogrisea, UniProt W5WHY8); test: peptide array transamidation, Cy5-streptavidin fluorescence; assay type: biochemical; details: 50 uM amine donor with 5-mer Gln peptides; 100 mM Tris-HCl, pH 8, 1 mM DTT, 37 °C, 45 min
T1 construct: gene KALB_7456; E. coli; predicted signal peptide removed; N-terminal 2x SlyD (E. coli) chaperone tag with factor Xa site (cut off for some applications), N-terminal MGGGSTTAQAAAVAAPTPR, C-terminal GGGS-His8
T1 sequence (W5WHY8 entry or part of it): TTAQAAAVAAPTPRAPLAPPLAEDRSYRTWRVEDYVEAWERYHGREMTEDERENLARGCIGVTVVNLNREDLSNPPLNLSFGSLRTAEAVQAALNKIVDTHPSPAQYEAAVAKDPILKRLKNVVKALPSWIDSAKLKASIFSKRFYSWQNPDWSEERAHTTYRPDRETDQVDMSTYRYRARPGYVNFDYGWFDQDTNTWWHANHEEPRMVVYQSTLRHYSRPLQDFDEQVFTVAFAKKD

[1] = molecular target: microbial transglutaminase (MTG) from Streptomyces mobaraensis, engineered enzyme from Zedira (Streptomyces mobaraensis) (UniProt P81453)
[2] = molecular target: microbial transglutaminase from Kutzneria albida (KalbTG) (Kutzneria albida DSM 43870)

Row | Km in the GLDH-coupled transglutaminase activity assay (37 °C, peptide 0-1 mM, 1 mM cadaverine as amine donor) [1] | Km in the GLDH-coupled transglutaminase activity assay (37 °C, peptide 0-1 mM, 1 mM cadaverine as amine donor) [2] | Molecule | peptide array transamidation, Cy5-streptavidin fluorescence (KalbTG)
1 |  |  | NCCCCCNC(=O)CCCC[C@@H]1SC[C@@H]2NC(=O)N[C@@H]21 [N-(biotinyl)cadaverine] | N-(biotinyl)cadaverine (Zedira) was used as a substitute for a Lys substrate to biotinylate Gln peptides
2 | 847 µM |  | Cbz-GGGDYALQGGGG | 
3 | 644 µM | 2150 µM | Cbz-GGGYRYRQGGGG | 
